The text below walks through data of the DeepSol protein solubility set.

A short description of the data set: soluble on expression in E. coli; label from the status in PepcDB or PDB records.
Consider “MGSDKIHHHHHHMIEYYNFNKSELEKHSRIPLIVKKNNEEIFISLALEMVELIKENNEKNEKTVIICPVGPVGQYPHFVRLVNQFKIDLSNVWFINMDEYLLEDLHWIDVVHPLSFRGFMQKNVYSQIHPTLIMSEEQRIFPDPLDIDSISNKIKELGKIDLCIGGIGLNGHIAFNEPDSTLTVQEFLKLGSRVLPISVETKVMNGLTVLKGAVEEVPNYCVTIGMSEIFQAKKIRLAVFRDWHHAVIRKTVCSKPDTGFPSTLMQIHTNCSIYLNESLAN”, for which the “soluble on expression in E. coli” value is “not soluble”.

“MSRTYDLASDVIRRVYERRIDAPAILDSASEFPNAAKFTNAWRDIRDEALGVHLGKVPRFHDIMPEQADISANDGLDWRMFVLKAYDMAVPENLARMPVLSRLLAECPEVKSAAISFLAPRKHIPSHRGPFRGIMRFHLGLVIPRQADGRPATIMMIDHQEKRITDGEGMLWDDTYPHEVMNNADETRIALLLDVWRPGMPWDMEMLSRLIVRGVQAGMRRRGVSFSGLEHHHHHH”: the “soluble on expression in E. coli” value is recorded as “soluble”.

Turning to “MSEAGSTVPFDFSSYGGEIDDLATRGLADAAGAEGIRTAMARVTGRAEEVQASRLSANEQNLIACGPGCADCCRVNVTVLLPEAIAIAAYLEEIGKGDETNAITMRVADTAARVRWMEDDERIRAGVACPFLDGRGWCAIYPVRPLTCRALSSTDPEQCRRALAAHCSDEEETIVVNIFQKFLMEGTFQSLARAMERAGLDTTGRELCRSVTRCLLDPRLADDFLAGKRIKFPESLEHHHHHH”, the “soluble on expression in E. coli” value is on record as “soluble”.

With “MAHQYPSWIFINEKTFITREQLNSLLKTYNIFYENQKNLHILYGETEDGKLIVEGMLDIFWGVKRPIQLKIQDEKPFSSFTSMKSSDVFSSKGMTRWGEFDDLYRISELDRTQIPMSEKRNSQEDYLPYHSNTLKPHAKDEPDSPVLYRTMSEAALVRKRMKPLMMDRKERQKNRASINGHFYNHEIENSPQDFALHIIFATGEQRRLKKTDIPLLQRLLQGPSEKNARIFLMDKDAEEISSDVAQYINFHFSLLESILQRLNEEEKREIQRIVTKFNKEKAIILKCLQNKLVIKTETTV”, the “soluble on expression in E. coli” value is “not soluble”.

Turning to “TQKSLSNFLLSMQEAFSLGEEDRLLAVTTVAFDISALELYLPLISGAQIVIAKKETIREPQALAQMIENFDINIMQATPTLWHALVTSEPEKLRGLRVLVGGEALPSGLLQELQDLHCSVTNLYGPTETTIWSAAAFLEEGLKGVPPIGKP”, the “soluble on expression in E. coli” value was “not soluble”.

Take “RALDTEDIQKVFTKLPQSSAVTSDMRRTQELFVLMFLLRGLPFVDLAYLRKSDLHDNVITYRRRKTGRPLSVTLTPEAMAILKRYMNRDTSSPYLFPLLNSREGTKEAYHEYQLALRNFNRQLMLLGEMLGLGDKLSSYTARHTWATTAYYCEIHPGVISEAMGHSSITVTETYLKPFRNKKIDEANKKVVDFIKRSIPIAMC”: the “soluble on expression in E. coli” value is recorded as “not soluble”.

As to “MSLHELKAAAFPQTTEKISPNWESGINVDLAISTRQYHMQQLFYRYGENNSLSVEGFRKLLQNIGIDKIKRIHIHHDHDHHSDHEHHSDHERHSDHEHHSDHEHHSDHNHAASGKNKRKALCPDHDSDSSGKDPRNSQGKGAHRPEHASGRRNVKDSVSASEVTSTVYNTVSEGTHFLETIETPRPGKLFPKDVSSSTPPSVTSKSRVSRLAGRKTNESVSEPRKGFMYSRNTNENPQECFNASKLLTSHGMGIQVPLNATEFNYLCPAIINQIDARSCLIHTSEKEGHHHHHH”, the “soluble on expression in E. coli” value was “not soluble”.

Regarding “MAIQLSKGQRIDLTKTNPGLTKAVIGLGWDTNKYSGGHDFDLDASAFLVDAHDNCVNDLDFVFYNNLEHPSGGVIHTGDNRTGEGDGDDEQIIVDFSKIPAHIEKIGITVTIHDAEARSQNFGQVSNAFVRVVDEETQNELLRFDLGEDFSIETAVVVCELYRHGGEWKFNAIGSGFSGGLAALCRNYGLQV”, the “soluble on expression in E. coli” value is listed as “not soluble”.

With “MNRGLDPMHVGNARYVKNDDLPKTVPVFPLPGALLLPEGHLPLNIFEPRYLAMIDTALASHRLIGMVQPALHVIEAGIEGGPLSAVGCLGRITSFSETGDGRYVISLTGVCRFRLLEEVAGSEPYRSFRHAPFGADLSGEYDEEAVDRENLLRVFRAFLDANQLEADWESVERAGNRVLVNSLSMMSPFGPAEKQALLEAPDLKTRAETLIAITEIVLAQGSGEGGTVLQLEHHHHHH”, the “soluble on expression in E. coli” value was “not soluble”.

“MGSDKIHHHHHHMRRKDATWILTAQCPSRLGTVDVVTRFLKECRCYITEQQSFDDRHGERFFIRTAFQPEETDFDADTFQAAFAARAAEFDMVFELTAPEARMPVVIMVSKADHCLNDLLYRYRTGQLPVTIRAVISNHPDLEPLVAWHDLPYYHLPITPETKAEQEAEVWRVIESTGAELVILARYMQVLSSELCEKLTGKAINIHHSLLPGFKGAKPYHQAFEKGVKLVGATAHYINDDLDEGPIITQGVEPVSHADDPEDLVAKGRDIECLTLARAVSLHLERRVFLHARRTVVFAR”: the “soluble on expression in E. coli” value is “not soluble”.

Regarding “MKISAVVVTFNRKKLLLECLNALRNQTYPLDAIFIIDGPSTDGTPEALLECGYIKELPPKKGNWSWETKNVIYSPINNKPIKVYYVRLYKDVGGSGGFYEGVKRAYEEGYNWIWLMDDDAEPREDALEKLIRYMNLPGVIALAPTVIRPTGEISKPHRGILCFKKIFPMIQIPLDESKYKSNQPVQIDFVSFVGPLIKRDAIKIVGFPKKEFFIHHDDVEYSIRLRTVGKIYLIPDSVIIHKENIKKTSLIKKRFLGKTIYRIPYNKLWKTYYGTRNLTYLGRIYSKSKFKFYFKLLKRWAVSVGAIILFDDHKIKRIQFITSAYLDGLRGKFDNEKPKRILYGGKKELEHHHHHH”, the “soluble on expression in E. coli” value was “soluble”.

“QCTGGADCTSCTGACTGCGNCPNAVTCTNSQHCVKANTCTGSTDCNTAQTCTNSKDCFEANTCTDSTNCYKATACTNSSGCPGH”: the “soluble on expression in E. coli” value is given as “soluble”.

For “MGHHHHHHSHMNSIVNGLYTFMSTTVVPAVTEQAANLVGGASALAEGATQALTQISQTALEWGSGSEDATASSEVFSWEQQGAAAASSDLQEDKKETTEDVHQEAIGASSPNTSIEWEVIHENPDETGPIRHNQFEMVQNNYEWMKNSK”, the “soluble on expression in E. coli” value is on record as “not soluble”.

For “EGQEKFKDLTYIAASVCNTEHAFITLLNKDNLVFLSSFKPPLAEITRDLSFCEITIQSDTVHEVQDARVHERFSNNPYVIGEPYLRYYCGAPLIDENGYKLGALCVLDTNPRTLTENQKKSLVLLAKQV”, the “soluble on expression in E. coli” value was “not soluble”.

“MGSDKIHHHHHHMSASSNRTIPVFQLYGETHQWPTPDLLHCESIAERSRLHDWHIRPHRHADLVHVLHIAHGDVNLTFEEGAQRLTGPLLIVVPAMTVHAFRFSRDVDGHIVTLAMPLARHIADTLHPQGQILARAAFYPLADQPERAPIATLVDQLDAEYRHPADGRDALLEALLNSLLVLASRRATRRQARPASRQHERGEAHLARFQQLIEAHYHQQPSIPEFAERLGISSAHLSAVCQRLAGRSAQQLLHERVLLEAKRHLTYTNMTIGQVAERLGFKEPAYFTRFFKRHVACSPKEFRQRQA”: the “soluble on expression in E. coli” value is “not soluble”.

Take “VYSDPLREAIAEAEQLVAAAPHIETEADLLEGLQYLAGCIAGCMHLAFDYERDHPFLQSGTGPFTKMGLDNPDTLYFGTRLQANRDYVVSGRRGTTTDLSFQLLGGEYTDYNVPASQAAFDDRELDIAADGSFEWRLRPSAPGQLVIREVYGDWSQQRGTLAIARLDTVGTAPPPLTRELMEKRYATAGSQLVNRVKTWLQFPQWFYLNIPVNTMVAPRLTPGGLATQYSSAGHFELRPGQALVITVPVSDAPYLGFQLGSMWYISLDYINHQTSLNASQAQADPDGKVRIVVAEQNPGVTNWVETLGHRRGFLQFRWQRVSRELTEADGPTVELVDFDAIPAALPHYQHNKISEDDWRARIALRQRQIATRMLG”: the “soluble on expression in E. coli” value is “not soluble”.

Consider “MVADMAGSSEKFKIVLKPVTAEAVPSGDAVKVTTGGVQIDVYPEREAGGPERGLTPLGLLAASLASCEVLMSRLVGRMLGYNGFDVRVAVTADVQVAEGLRSLSIRYVFKGVDIDTANLIVSKVKELCPVYNSLVRNGVSVEENVEVE”, for which the “soluble on expression in E. coli” value was “soluble”.

In the case of “PKTQRGIYHNLKESEYVASNTDVTFFFSSELYLNKFLDGYQEYRKKFNKKIERVAVTPWNMDMLADITFYSEVEKRGFHAWLKGDNATWREVHVYALRIMTKPNTLDWSRIQKPRLRERRKSM”, the “soluble on expression in E. coli” value is on record as “soluble”.

“SLNIKLKDFTMINAVSSLAPVQSLGNYKRVEKNEKVENNEAALDRVAEIKKAIENNQYKINLHETSHKMAKDLLGIS”: the “soluble on expression in E. coli” value is “soluble”.

On to “LTGPLMLDTAPNAFDDQYEGCVNKMEEKAPLLLQEDFNMNAKLKVAWEEAKKRWNNIKPSRSYPKGFNDFHGTALVAYTGSIAVDFNRAVREFKENPGQFHYKAFHYYLTRALQLLSNGDCHSVYRGTKTRFHYTGAGSVRFGQFTSSSLSKKVAQSQEFFSDHGTLFIIKTCLGVYIKEFSFRPDQEAVLIPGYEVYQKVRTQGYNEIFLDSPKRKKSNYNCLYS”, for which the “soluble on expression in E. coli” value is “soluble”.

Turning to “MKSSEEQALAGIELDDDAVMQYLLQNPDFFIRNARLVEQMHIPHPVRGTVSLVEWQLGRQRNQIGQLEEEITLLMEQAGLNEVLFNRLLQLQGNLAAASSLQDMLNRLQRWARDFGLAGANVRLFTDRWQIGAPSDFTHLGLSRHAFEPMRIQRLGNARHYLGSLNGPELLLLLPQAKQVGSVALSLLGKEGDLGVIVFSSRDIQHYQQGMGTVMLNQLSMLLPSLLERWIEPVLEHHHHHH”, the “soluble on expression in E. coli” value is reported as “not soluble”.

“MIPTERRQIILDMVAEKGIVSIAELTERMHVSHMTIRRDLQKLEQQGAVIQVSGGVQSSTRVAHEPSHQIKTELATPQKAAIGKLAASLVQPESCIYLDAGTTTLAIARQLVTMNKLTVVTNDFVIADYLMDNSNCTIIHTGGAVCRENRSCVGEAAATLLRGLMIDQAFISASSWSVRGISTPAEDKVTVKRAVASASRQKILVCDATKYGQVATWLALPLAEFNQIVTDDGLPESAIRALAKVDISLLMAKQ”: the “soluble on expression in E. coli” value is recorded as “not soluble”.

As for “MGSDKIHHHHHHYYLIVSQLLGDTASVKLLVPPGANPHLFSLKPSDAKTLEEADLIVANGLGLEPYLEKYREKTVFVSDFIPALLLIDDNPHIWLDPFFLKYYIVPGLYQVLIEKFPEKQSEIKQKAEEIVSGLDTVIRDSFKALLPYTGKTVVMAHPSFTYFFKEFGLELITLSSGHEHSTSFSTIKEILRKKEQIVALFREPQQPAEILSSLEKELRMKSFVLDPLGVNGEKTIVELLRKNLSVIQEALK”, the “soluble on expression in E. coli” value is “not soluble”.

On to “MRTFESVADLAAAAGEKVGQSDWVTITQEEVNLFADATGDHQWIHVDPERAAAGPFGTTIAHGFMTLALLPRLQHQMYTVKGVKLAINYGLNKVRFPAPVPVGSRVRATSSLVGVEDLGNGTVQATVSTTVEVEGSAKPACVAESIVRYVA”, for which the “soluble on expression in E. coli” value is given as “soluble”.

Turning to “MSLHLKVFAKPKITYVENQTAMELEEQVTLTCEASGDPIPSITWRTSTRNISSEEKASWTRPEKQETLDGHMVVRSHARVSSLTLKSIQYTDAGEYVCTASNTIGQDSQSMYLEVQYAPKLQGPVAVYTWEGNQVNITCEVFAYPSATISWFRDGQLLPSSNYSNIKIYNTPSASYLEVTPDSENDFGNYNCTAVNRIGQESLEFVLVQADTPSSPSIDQVEPYSSTAQVQFDEPEATGGVPILKYKAEWRAMGEEVWHSKWYDAKEASMEGIVTIVGLKPETTYAVRLAALNGKGLGEISAASEFKTQPVREPSAEGHHHHHH”, the “soluble on expression in E. coli” value was “not soluble”.

On to “SVCKGVSGNPAKGEVFLYKHVNFQGDSWKVTGNVYDFRSVSGLNDVVSSVKVGPNTKAFIFKDDRFNGNFIRLEESSQVTDLTTRNLNDAISSMIVATFESA”, for which the “soluble on expression in E. coli” value was “soluble”.
